Reference: publication PMC5617235

How the values were obtained:
[1] = biological target: T. congolense fructose-1,6-bisphosphate aldolase, wild type (Trypanosoma congolense); experiment: crystal structure; (Nb474-TcoALD)4 complex, His tags of both retained; 100 mM sodium cacodylate pH 6.5, 200 mM magnesium acetate, 10% PEG 8000, 20°C; 2.57 Å
[2] = biological target: T. congolense fructose-1,6-bisphosphate aldolase, wild type (Trypanosoma congolense); experiment: SEC; analytical SEC of TcoALD alone; Superdex 200 HR 10/30, 50 mM MES, 500 mM NaCl, pH 6.7; calibrated with the Bio-Rad standard
[3] = biological target: T. congolense fructose-1,6-bisphosphate aldolase, wild type (Trypanosoma congolense); experiment: SEC; analytical SEC of 1 mg TcoALD mixed with Nb474 at Nb474:TcoALD ratios 1:4, 2:4, 3:4, 4:4, 6:4, incubated at least 1 h; Superdex 200 HR 10/30, 50 mM MES, 500 mM NaCl, pH 6.7; peaks analysed by SDS-PAGE
[4] = biological target: T. congolense fructose-1,6-bisphosphate aldolase A77E mutant (Trypanosoma congolense); experiment: SPR; SPR sandwich assay: immobilised Nb474 on CM5 saturated with a TcoALD variant, then Nb474 (0.5 nM to 1.0 uM) injected as second analyte; 20 mM HEPES, 150 mM NaCl, 0.005% Tween, 3.4 mM EDTA, pH 7.4; 1:1 Langmuir model for WT and A77E

Row | Molecule | stoichiometry N [1] | stoichiometry N [2] | stoichiometry N [3] | stoichiometry N (Nb474 per TcoALD monomer) [3] | Kd [4] [nM] | koff [4] [s⁻¹] | kon [4] [M⁻¹ s⁻¹]
1 | T. congolense fructose-1,6-bisphosphate aldolase, wild type (enzyme) | 4 | 2 | 4 | – | – | – | –
2 | Nanobody Nb474, C-terminally His-tagged (VHH) VHH: QVQLQESGGGLVQPGGSLRLSCAASETALTYYAIGWFRQAPGKEREGVSCISRINSGSGARTDYADSVKGRFTISRDDAKNTVTLQMNSLEPEDTARYYCALDTTDRYDSANGRYYCTISSDTYDYWGQGTQVTVSS | – | – | – | 1 | 0.067 | 0.000141 | 2.11e+06
